In patent publication US20120077957A1 (PALATIN TECHNOLOGIES, published 2012):
Bridge positions count the residues as written; N and C are the ends. Square brackets hold non-standard residues; d marks the D form. Met(O2) = CS(=O)(=O)CC[C@H](N)C(=O)O; Cit = NC(=O)NCCC[C@H](N)C(=O)O; Orn = NCCC[C@H](N)C(=O)O; Dab = NCC[C@H](N)C(=O)O

B1: Asp...Lys analog of peptide No. 18: Ac-Arg-cyclo(Asp-Dab(Acetyl)-D-Phe-Arg-Trp-Lys)-NH2 (peptide)
peptide: Ac-RD[Dab](Ac)[dF]RWK-NH2
modifications: lactam 2-7
SMILES: CC(=O)NCC[C@@H]1NC(=O)[C@@H](NC(=O)[C@H](CCCNC(=N)N)NC(C)=O)CC(=O)NCCCC[C@@H](C(N)=O)NC(=O)[C@H](Cc2c[nH]c3ccccc23)NC(=O)[C@H](CCCNC(=N)N)NC(=O)[C@@H](Cc2ccccc2)NC1=O

Each binder was assayed against T1, human melanocortin-4 receptor (recombinant hMC4-R) (human, UniProt P32245 1-332) (assay: cell-based or functional assay).
T1 sequence (P32245 whole entry): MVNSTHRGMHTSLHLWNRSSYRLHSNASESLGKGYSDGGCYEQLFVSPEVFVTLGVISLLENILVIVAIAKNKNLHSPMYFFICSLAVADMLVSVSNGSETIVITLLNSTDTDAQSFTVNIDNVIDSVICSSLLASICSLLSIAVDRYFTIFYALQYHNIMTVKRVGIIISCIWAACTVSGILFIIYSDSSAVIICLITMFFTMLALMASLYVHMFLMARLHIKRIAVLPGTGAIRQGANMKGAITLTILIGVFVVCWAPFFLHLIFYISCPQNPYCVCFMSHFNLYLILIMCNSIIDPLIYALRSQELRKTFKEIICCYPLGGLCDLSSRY

Binder	Ec50 (nM), cAMP [nM]	Emax (%), cAMP [%]
Ac-RD[Dab][dF]RWK-NH2 (lactam 2-7) [Asp...Lys analog of peptides No. 6 and No. 43: Ac-Arg-cyclo(Asp-Dab-D-Phe-Arg-Trp-Lys)-NH2]	0.3	91
Ac-[dR]DH[dF]RWK-NH2 (lactam 2-7) [Asp...Lys analog of peptide No. 39: Ac-D-Arg-cyclo(Asp-His-D-Phe-Arg-Trp-Lys)-NH2]	–	89
Ac-RDH[dF]RWK-NH2 (lactam 2-7) [Asp...Lys analog of peptides No. 4 and No. 38: Ac-Arg-cyclo(Asp-His-D-Phe-Arg-Trp-Lys)-NH2]	–	83
Ac-R[Orn][Dab][dF]RWE-OH (lactam 2-7) [Peptide No. 42: Ac-Arg-cyclo(Orn-Dab-D-Phe-Arg-Trp-Glu)-OH]	–	100
Ac-RDH[dF]RWK-OH (lactam 2-7) [Asp...Lys analog of peptides No. 3 and No. 37: Ac-Arg-cyclo(Asp-His-D-Phe-Arg-Trp-Lys)-OH]	–	91
Ac-RDQ[dF]RWK-NH2 (lactam 2-7) [Asp...Lys analog of peptides No. 12 and No. 44: Ac-Arg-cyclo(Asp-Gln-D-Phe-Arg-Trp-Lys)-NH2]	17	85
Ac-[dR][Orn]Q[dF]RWE-NH2 (lactam 2-7) [Peptide No. 45: Ac-D-Arg-cyclo(Orn-Gln-D-Phe-Arg-Trp-Glu)-NH2]	–	89
Ac-RD[Dab][dF]RWK-OH (lactam 2-7) [Asp...Lys analog of peptides No. 5 and No. 42: Ac-Arg-cyclo(Asp-Dab-D-Phe-Arg-Trp-Lys)-OH]	4	91

Target: T1, human melanocortin-4 receptor …
Assay: cell-based or functional assay
Remark: another data set of the same source

Binder	Ec50 (nM), cAMP [nM]	Emax (%), cAMP [%]
Ac-RE[Dab][dF]RW[Orn]-NH2 (lactam 2-7) [Peptide No. 6: Ac-Arg-cyclo(Glu-Dab-D-Phe-Arg-Trp-Orn)-NH2]	0.3	94
Ac-RD[Orn](Ac)[dF]RWK-NH2 (lactam 2-7) [Asp...Lys analog of peptide No. 33: Ac-Arg-cyclo(Asp-Orn(Acetyl)-D-Phe-Arg-Trp-Lys)-NH2]	532	62
Ac-RE[Orn][dF]RW[Orn]-OH (lactam 2-7) [Peptide No. 7: Ac-Arg-cyclo(Glu-Orn-D-Phe-Arg-Trp-Orn)-OH]	–	92
Ac-RE[Dab](Ac)[dF]RW[Orn]-NH2 (lactam 2-7) [Peptide No. 18: Ac-Arg-cyclo(Glu-Dab(Acetyl)-D-Phe-Arg-Trp-Orn)-NH2]	–	75
Ac-REQ[dF]RW[Orn]-NH2 (lactam 2-7) [Peptide No. 12: Ac-Arg-cyclo(Glu-Gln-D-Phe-Arg-Trp-Orn)-NH2]	–	96
Ac-RD[Dab][dF]RWK-NH2 (lactam 2-7) [Asp...Lys analog of peptides No. 6 and No. 43: Ac-Arg-cyclo(Asp-Dab-D-Phe-Arg-Trp-Lys)-NH2]	0.3	91
Ac-RD[Orn][dF]RWK-OH (lactam 2-7) [Asp...Lys analog of peptide No. 7: Ac-Arg-cyclo(Asp-Orn-D-Phe-Arg-Trp-Lys)-OH]	12	84
B1	–	69
Ac-RE[Cit][dF]RW[Orn]-NH2 (lactam 2-7) [Peptide No. 15: Ac-Arg-cyclo(Glu-Cit-D-Phe-Arg-Trp-Orn)-NH2]	–	87
Ac-RDH[dF]RWK-NH2 (lactam 2-7) [Asp...Lys analog of peptides No. 4 and No. 38: Ac-Arg-cyclo(Asp-His-D-Phe-Arg-Trp-Lys)-NH2]	–	83
Ac-RE[Dab][dF]RW[Orn]-OH (lactam 2-7) [Peptide No. 5: Ac-Arg-cyclo(Glu-Dab-D-Phe-Arg-Trp-Orn)-OH]	–	94
Ac-REQ[dF]RW[Orn]-OH (lactam 2-7) [Peptide No. 11: Ac-Arg-cyclo(Glu-Gln-D-Phe-Arg-Trp-Orn)-OH]	–	81
Ac-REK[dF]RW[Orn]-NH2 (lactam 2-7) [Peptide No. 16: Ac-Arg-cyclo(Glu-Lys-D-Phe-Arg-Trp-Orn)-NH2]	–	104
Ac-REN[dF]RW[Orn]-NH2 (lactam 2-7) [Peptide No. 34: Ac-Arg-cyclo(Glu-Asn-D-Phe-Arg-Trp-Orn)-NH2]	0.4	91
Ac-RER[dF]RW[Orn]-NH2 (lactam 2-7) [Peptide No. 10: Ac-Arg-cyclo(Glu-Arg-D-Phe-Arg-Trp-Orn)-NH2]	–	98
Ac-RE[Met(O2)][dF]RW[Orn]-NH2 (lactam 2-7) [Peptide No. 13: Ac-Arg-cyclo(Glu-Met(O2)-D-Phe-Arg-Trp-Orn)-NH2]	5	71
Ac-RDH[dF]RWK-OH (lactam 2-7) [Asp...Lys analog of peptides No. 3 and No. 37: Ac-Arg-cyclo(Asp-His-D-Phe-Arg-Trp-Lys)-OH]	–	91
Ac-RDQ[dF]RWK-NH2 (lactam 2-7) [Asp...Lys analog of peptides No. 12 and No. 44: Ac-Arg-cyclo(Asp-Gln-D-Phe-Arg-Trp-Lys)-NH2]	17	85
Ac-RD[Dab][dF]RWK-OH (lactam 2-7) [Asp...Lys analog of peptides No. 5 and No. 42: Ac-Arg-cyclo(Asp-Dab-D-Phe-Arg-Trp-Lys)-OH]	4	91

The binders below were run against T1, human melanocortin-4 receptor … (assay: competition with labelled NDP-α-MSH ([I125] or Eu), hMC4-R HEK-293 membranes).
Protocol: After incubation for 60 minutes at 37° C., the assay mixture was filtered and the membranes washed three times with ice-cold buffer. Filters were dried and counted in a gamma counter for bound radioactivity. […] Maximal specific binding (100%) was defined as the difference in radioactivity (cpm) bound to cell membranes in the absence and presence of 1 μM NDP-α-MSH. […] Ki values for test peptides of the present invention were determined using Graph-Pad Prism® curve-fitting software.
After incubation for 90 minutes at 37° C., the reaction was stopped by filtration over AcroWell 96-well filter plates (Pall Life Sciences). The filter plates were washed 4 times with 200 μL of ice-cold phosphate-buffered saline. DELFIA Enhancement solution (PerkinElmer Life Sciences) was added to each well. The plates were incubated on a shaker for 15 minutes and read at 340 nm excitation and 615 nm emission wavelengths. Each assay was conducted in duplicate and mean values were utilized. Ki values were determined by curve-fitting with Graph-Pad Prism® software using a one-site fixed-slope competition binding model.

Binder	Ki [nM]
Ac-REK[dF]RW[Orn]-NH2 (lactam 2-7) [Peptide No. 16: Ac-Arg-cyclo(Glu-Lys-D-Phe-Arg-Trp-Orn)-NH2]	15
Ac-REN[dF]RW[Orn]-NH2 (lactam 2-7) [Peptide No. 34: Ac-Arg-cyclo(Glu-Asn-D-Phe-Arg-Trp-Orn)-NH2]	6
